From US20250154238A1, “METHODS AND COMPOSITIONS FOR TREATING AND PREVENTING FIBROSIS” (YALE UNIVERSITY, priority 2022, published 2025)

How the values were obtained:
[1] = molecular target: recombinant mouse epiregulin (mouse) (UniProt Q61521)
[2] = molecular target: recombinant human epiregulin containing the epidermal growth factor (EGF) domain (R&D Biosciences Cat #1195-EP) (human) (UniProt O14944); assay: cell-based or functional assay
recombinant human epiregulin containing the epidermal growth factor (EGF) domain (R&D Biosciences Cat #1195-EP) (human), sequence (O14944 63-108 limits assumed): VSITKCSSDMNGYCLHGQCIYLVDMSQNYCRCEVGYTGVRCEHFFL

recombinant mouse epiregulin (mouse), sequence (Q61521 56-101 limits assumed): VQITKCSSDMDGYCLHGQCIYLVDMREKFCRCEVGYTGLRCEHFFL

IC50 of inhibition of HFF proliferation induced by 100 ng/ml rmEreg (GFP fluorescence) [1]: 0.1 µg/mL
IC50 of inhibition of epiregulin-induced HFF proliferation (rhEreg 100 ng/ml) [2]: 0.16 µg/mL
Substance: rat anti-human/mouse neutralizing epiregulin antibody (R&D Systems MAB1068, clone 189611)
